In patent publication US6950754:

Target: GCN4-p1
Test: size exclusion chromatography, self-association

GCN4-p1 (peptide; modification not given), sequence (chain, as listed by the source): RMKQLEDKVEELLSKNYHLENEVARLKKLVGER

oligomerization state (N): 2
Substance: GCN4-p1 (peptide; modification not given)
